Measured values reported in US12441811B2, “Compositions and methods for treating serpin B13 disorders” (REGENTS OF THE UNIVERSITY OF MINNESOTA, priority 2019, dated 2025).
Entries after “also recorded” stand apart in the source; their conditions may differ.

Experiments:
[1] = system: catL; assay: catL protease activity in cell extract from pancreatic tissue in vitro; assay type: biochemical; settings: mAb added to cell extract from pancreatic tissue in vitro
[2] = system: Ngn3+ endocrine progenitor cells; assay: Ngn3+ cells in embryonic pancreas explants (E12.5) cultured in vitro; assay type: cell-based, mouse; settings: for number of CK19+ epithelial cells: E12.5 explants with mAb vs control Ab
Method: Isolation and culture of embryonic pancreas explants. The isolation and culture of embryonic pancreas explants was performed as described elsewhere, with minor modifications.
Processing of pancreatic tissue for immunofluorescence microscopy. The pancreatic tissues were isolated and fixed either overnight (adult pancreases), or for one hour (embryonic pancreas explants), in 2% PFA (pH 7.4), followed by a two-step saturation process: first in a 30% sucrose solution in PBS and then in optimal cutting temperature (OCT) compound. After complete saturation, the tissues were imbedded in OCT using Cryomold and then snap frozen in an ethanol/dry ice bath. The OCT blocks were serially cut through the entire organ to obtain representative sections every 600 μm (6 to 8 sections per adult pancreas), 50 μm (12 to 14 sections per E16.5 embryonic pancreas), 35 μm (10 to 12 sections per E14.5 embryonic pancreas), or 15 μm (10 to 12 sections per E12.5 embryonic pancreas cultured for 1 to 3 days). For the embryonic linage tracing experiments, three largest sections were taken for the analysis. For all other experiments involving immunofluorescence microscopy, all obtained sections were analyzed. […]
The sections from the pancreases of embryos at age E14.5 and E16.5, and newborn pups (OP), were stained with anti-Ngn3 antibody to determine the total number of endocrine progenitors cells for all sections per explant combined (FIG. 9G, FIG. 17A). Alternatively, the sections representing the pancreases of embryos at age E12.5 (which are considerably smaller) were stained with both anti-Ngn3 and anti-CK19 antibodies to determine the fraction of CK19-positive area that was occupied by Ngn3− positive staining (FIGS. 9D, 10A, 10C, 12D, 12G, 12J and FIGS. 15A, 20B). The following formula was used to adjust for any differences in the pancreas size: (Ngn3^+ cell number/μm^2 of CK19^+ cells)×10^5.
Image analysis. Embryonic images were processed with a plugin-Trainable Weka Segmentation v3.2.28 (Hamilton, New Zealand) for ImageJ v.1.52jv software. To classify and quantify the images in unbiased fashion, we defined the following four classes for the analysis: Ngn3^+ cells, the clusters of cytokeratin 19^+ cells, the negatively stained areas, and background (e.g., the area outside of tissue sample). Alternatively, the Visiopharm version 6.0 software (Visiopharm, Hoerholm, Denmark) with Author module was used to create applications to outline Ngn3^+ cells or double positive cells expressing YFP and insulin using preprocessing and postprocessing steps, when necessary. In addition, the Engine module of the Visiophram module was used to execute created applications and unbiasedly analyze the images. For the unbiased quantitative analysis of β-cells and islets in the whole pancreatic sections, Visiopharm Author module was trained to recognize insulin-positive β-cell clusters with diameter greater than 50 μm as well as negatively stained section area. In all studies involving microscopy the treatment assignments were blinded to investigators who performed data analysis.

[3] = system: streptozotocin-induced diabetes; assay: STZ-induced diabetes in adult offspring with gestational exposure to anti-serpinB13 mAb; assay type: in vivo, mouse; settings: for preserved residual β-cell mass: 4 weeks after STZ 150 mg/kg in adulthood; for preserved residual β-cell mass / diabetes / severity of the disease: prenatal exposure; for diabetes / severity of the disease: STZ injected in adulthood, vs control antibody
Description: Calculation of the islet mass. In embryos, the β-cell mass was expressed as the percentage of the area of all pancreatic sections combined, that positively stained with anti-insulin antibody. To calculate β-cell mass in adult mice, the percentage insulin-positive area was multiplied by the pancreas weight expressed in milligrams.
Diabetes induction and monitoring. C57BL/6 male mice, which are susceptible to STZ-induced diabetes, were subjected to a 6-hour period of bedding removal and fasting with unlimited access to drinking water. At the end of fasting, STZ was dissolved in a freshly prepared buffer (50 mM Sodium Citrate, pH 4.5) and immediately injected i.p. at 150 mg/kg. The glucose levels in tail blood were measured at random every 7 days for 4 weeks. Alternatively, to perform the glucose tolerance test, STZ-treated C57BL/6J male mice were first fasted for 6 hours with unlimited access to drinking water, and then injected i.p. with a 10% D-(+)-glucose solution (10 μL/g body weight). A glucometer (One-Touch Ultra) was used to monitor glucose levels using tail blood collected before glucose injection, and after injection at 30-min intervals for 2 hours. For glucometer glucose readings “above 600 mg/dL”, the data were extrapolated to the value of 700 mg/dL for algebraic statistical purposes only.

[4] = system: Ngn3+ cells; assay: Genetic lineage tracing of Ngn3+ cells; assay type: in vivo, mouse
Method: FIGS. 18A-18C. Genetic tracing of Ngn3^+ cells in the pancreas of healthy and diabetic adult mice treated with anti-serpinB13 mAb. (A) The protocol of mice treatment with streptozotocin (STZ), tamoxifen (TAM), and anti-serpinB13 mAb (or control Ab). Eight-week old Ngn3Cre^ERTR26^YFP mice were induced into diabetes with STZ (150 mg/kg) and genetically labelled with YFP to mark Ngn3^+ cells, using TAM one day after injection of STZ, and an additional three times every other day thereafter. The antibodies were injected every day for 7 days at 100 μg/injection during the first week after STZ treatment. (B) Quantitative analysis by IF microscopy of YFP^+ cells expressing insulin at two weeks following induction of diabetes with STZ. […] (C) Representative microscopic IF images of YFP^+insulin^+ cells depicted in (B). Data are presented as the mean±SEM. Ordinary one-way ANOVA with Sidak test. Scale bars, 10 μm. NS, not significant. αB13, anti-serpinB13 mouse mAb.
Linage tracing. In the developmental studies, the Rosa26^EYFP females were initially set up for overnight breeding with NgnCre^ERT males and the following morning examined for the presence of a vaginal plug to indicate embryonic day E0.5. On embryonic day E10.5, E11.5, E12.5 and 13.5, anti-serpinB13 mAb (or control Ab) was injected i.p. at a dose of 50 μg per animal per day (total dose of 200 μg). […]

B1: B29: mouse monoclonal antibody to serpin B13, clone B29; heavy chain SEQ ID NO:14, kappa light chain SEQ ID NO:16 (antibody, V domains shown)
VH: QIQLVQSGPELKKPGETVKISCKASGYTFTTYGMSWVKQAPGKGLKWMGWINTYSGMPTYADDFKGRFAFSLETSATTAYLQINNLKNEDTATYFCARPLLGLDYWGQGTTLTVSS
VL: DIVMTQTPLSLSVTIGQPASISCKSSQSLLHSDGKTFLNWFLQRPGQSPKLLIYLVSKLESGIPDRFSGSGSGTDFTLKISRVEVEDLGVYYCLQHTHFPLTFGAGTKLEIK
protease activity of catL [1]: dose-dependently enhanced | Ngn3+ cell population, upregulation by mAb ([2]; CatL-deficient embryonic pancreas explants, 48-hour culture): completely refractory to upregulation | number of CK19+ epithelial cells [2]: remained unchanged | number of CK19+ epithelial cells ([2]; listed as mAb): did not change | number of Ngn3+ cells ([2]; E12.5 explants, antibody at 1 μg/mL vs control Ab): significant increase | loss of body weight ([3]; 1-4 weeks after STZ): prevented | serum creatinine as a measure of renal function ([3]; 4 weeks after STZ): improved | preserved residual β-cell mass ([3]; listed as anti-serpinB13 mAb): over two-fold greater | preserved residual β-cell mass ([3]; listed as serpinB13 mAb): higher | diabetes / severity of the disease [3]: helped to prevent severe diabetes | diabetes / severity of the disease ([3]; listed as anti-serpinB13 antibody): improved outcomes | diabetes / severity of the disease ([3]; listed as anti-serpinB13 mAb): either completely protected against diabetes (FIG. 24A-24B), or ameliorated the severity of the disease | diabetes / severity of the disease ([3]; listed as mAb): improved resistance | diabetes / severity of the disease ([3]; listed as serpinB13 mAb): reduced severity of disease | blood glucose control ([3]; ipGTT at 2 weeks, random glucose 1-4 weeks after STZ): improved | transition from Ngn3 to insulin expression (YFP+insulin+ cells) ([4]; adult mice with STZ-induced pancreatic damage, 100 μg/injection for 7 days, listed as anti-serpinB13 mAb): also observed; also recorded: increase | conversion of Ngn3+ cells to insulin-positive status ([4]; injection during gestation, YFP+insulin+ cells in embryos): enhanced conversion
